Experimental data from publication PMC2605266 (2008).

What was measured:
[1] = biological target: GST-VAMP2 harbouring only the SNARE motif (VAMP2 lacking the first 30 amino acids) (Rattus norvegicus (Rat), UniProt P63045); test: GST pull-down, immunoblot
[2] = biological target: GST fused to the cytosolic domain of VAMP2 (Rattus norvegicus (Rat), UniProt P63045); test: GST pull-down, immunoblot
Sequence of GST fused to the cytosolic domain of VAMP2 (P63045 1-92): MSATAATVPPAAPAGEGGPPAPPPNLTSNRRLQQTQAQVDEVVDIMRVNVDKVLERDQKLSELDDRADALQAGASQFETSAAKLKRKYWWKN

Sequence of GST-VAMP2 harbouring only the SNARE motif (VAMP2 lacking the first 30 amino acids) (P63045 31-92): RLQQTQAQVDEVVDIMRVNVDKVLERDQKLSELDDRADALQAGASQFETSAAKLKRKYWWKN

B1: Munc18c, N-terminal His6-fusion protein (protein)
chain: MAPPVSERGLKSVVWRKIKTAVFDDCRKEGEWKIMLLDEFTTKLLSSCCKMTDLLEEGITVIENIYKNREPVRQMKALYFISPTPKSVDCFLRDFGSKSEKKYKAAYIYFTDFCPDSLFNKIKASCSKSIRRCKEINISFIPQESQVYTLDVPDAFYYCYSPDPSNASRKEVVMEAMAEQIVTVCATLDENPGVRYKSKPLDNASKLAQLVEKKLEDYYKIDEKGLIKGKTQSQLLIIDRGFDPVSTVLHELTFQAMAYDLLPIENDTYKYKTDGKEKEAVLEEDDDLWVRVRHRHIAVVLEEIPKLMKEISSTKKATEGKTSLSALTQLMKKMPHFRKQISKQVVHLNLAEDCMNKFKLNIEKLCKTEQDLALGTDAEGQRVKDSMLVLLPVLLNKNHDNCDKIRAVLLYIFGINGTTEENLDRLIHNVKIEDDSDMIRNWSHLGVPIVPPSQQAKPLRKDRSAEETFQLSRWTPFIKDIMEDAIDNRLDSKEWPYCSRCPAVWNGSGAVSARQKPRTNYLELDRKNGSRLIIFVIGGITYSEMRCAYEVSQAHKSCEVIIGSTHILTPRKLLDDIKMLNKSKDKVSFKDE
- binding result [1]: binds
- binding result [2]: binds
